Measured values reported in patent publication US20250026836A1 (UCB, published 2025).

Experiments:
[1] = biological target: HLA-E consensus sequence, co-expressed with B2m on HEK293 cells (human, UniProt P13747 22-358; P61769 21-119); assay: flow cytometry on HEK293 cells transfected with HLA-E consensus/B2m
[2] = biological target: T1, Human HLA-G ECD + B2m (soluble, AVItev10His tag) (human); assay: SPR, 25 C, hIgG1 captured via anti-human Fc, HLA-G ECD+B2m titrated from 50 nM, another assay
T1 construct: also called soluble HLA-G

[3] = biological target: human HLA-G and β2 microglobulin stably expressed on the HLAG-β2m-Reh cell line (human, UniProt P17693 25-338; P61769 21-119); assay: cell-based or functional assay
[4] = biological target: T2, HLA-G naturally expressed on human choriocarcinoma trophoblastic JEG3 cells (human, UniProt P17693 25-338; P61769 21-119); assay: flow cytometry, blocking of ILT2rbFc binding to JEG3 cells
T2 construct: whole, on cells; also called JEG3 WT

[5] = biological target: HLA-F consensus sequence, co-expressed with B2m on HEK293 cells (human, UniProt P30511 22-346; P61769 21-119); assay: flow cytometry on HEK293 cells transfected with HLA-F consensus/B2m
[6] = biological target: T3, HLA-G wild type, membrane-bound, co-expressed with B2m on transfected cells (HEK293 / HCT116) (human, UniProt P17693 25-338; P61769 21-119); assay: flow cytometry, blocking of ILT2rbFc binding to HLA-G/B2m HEK293 cells
T3 construct: Same construct transiently expressed on HEK293 (Expi293) or HCT116 cells; the cell line is named under assay; also called HLA-G WT; HEK-HLAG

[7] = biological target: T2, HLA-G naturally expressed on human …; assay: flow cytometry on JEG3 cells, 1.5 ml IgG solution, geometric mean of three independent assays; geometric mean of three independent assays
[8] = biological target: HLA-A consensus sequence, co-expressed with B2m on HEK293 cells (human, UniProt P04439 25-365; P61769 21-119); assay: flow cytometry on HEK293 cells transfected with HLA-A consensus/B2m
[9] = biological target: T2, HLA-G naturally expressed on human …; assay: flow cytometry, blocking of ILT2rbFc binding to JEG3 cells, large volume
[10] = biological target: T3, HLA-G wild type, membrane-bound, …; assay: flow cytometry, blocking of ILT4rbFc binding to HLA-G/B2m HCT116 cells
[11] = biological target: HLA-B consensus sequence, co-expressed with B2m on HEK293 cells (human, UniProt P01889 25-362 at identity 0.96); P61769 21-119); assay: flow cytometry on HEK293 cells transfected with HLA-B consensus/B2m
[12] = biological target: HLA-C consensus sequence, co-expressed with B2m on HEK293 cells (human, UniProt P10321 25-366; P61769 21-119); assay: flow cytometry on HEK293 cells transfected with HLA-C consensus/B2m
[13] = biological target: T3, HLA-G wild type, membrane-bound, …; assay: flow cytometry on HEK293 cells transfected with HLA-G/B2m
[14] = biological target: T2, HLA-G naturally expressed on human …; assay: flow cytometry on JEG3 WT cells, IgG1 100-0.05 nM
[15] = biological target: T1, Human HLA-G ECD + B2m (soluble, …); assay: SPR, 25 C, hIgG1 captured via anti-human Fc, HLA-G ECD+B2m titrated from 50 nM
[16] = biological target: T1, Human HLA-G ECD + B2m (soluble, …); assay: SPR, 25 C, hIgG1 captured via anti-human Fc, HLA-G ECD+B2m 50 nM as analyte, second experiment
[17] = biological target: T2, HLA-G naturally expressed on human …; assay: flow cytometry on JEG3 cells, 1.5 ml IgG1 solution, 10-0.0005 nM
[18] = biological target: T1, Human HLA-G ECD + B2m (soluble, …); assay: SPR, 25 C, hIgG1 captured via anti-human Fc, HLA-G ECD+B2m 50 nM as analyte, first experiment

binding result [1]	Kd [2]	EC50 (nM) of CDC, lot 1 [3]	EC50 (nM) of CDC, lot 2 [3]	EC50 (nM) of CDC, lot 3 [3]	IC50 [4]	binding result [5]	IC50 [6]	EC50 [7]	binding result [8]	IC50 [9]	IC50 [10]	binding result [11]	binding result [12]	EC50 [13]	EC50 [14]	Kd [15]	Kd [16]	Kd [17]	Kd [18]	Binder
no binding (tested: IgG up to 100 nM)	4.4 nM	2.51 nM	3.29 nM	3.7 nM	0.51 nM	no binding (tested: IgG up to 100 nM)	0.83 nM	0.021 nM	no binding (tested: IgG up to 100 nM)	0.021 nM	1.38 nM	no binding (tested: IgG up to 100 nM)	no binding (tested: IgG up to 100 nM)	0.92 nM	0.2 nM					Afucosylated HLA-G02 (antibody, human IgG1, kappa, afucosylated IgG1 (produced in FUT8 knock-out CHO-SXE cells), also called aF HLA-G02; Afucosylated HLA-02) heavy: not shown light: AIVLTQSPSSLSASVGDRVTITCQASQSIYSYLSWYQQKPGKAPKLLIYKASTLASGVPSRFSGSGSGTDFTLTISSLQPEDFATYYCQNHWNVGGNGWPFGGGTKVEIKRTVAAPSVFIFPPSDEQLKSGTASVVCLLNNFYPREAKVQWKVDNALQSGNSQESVTEQDSKDSTYSLSSTLTLSKADYEKHKVYACEVTHQGLSSPVTKSFNRGEC
no binding (tested: IgG up to 100 nM)	4.3 nM				0.53 nM	no binding (tested: IgG up to 100 nM)	1.37 nM		no binding (tested: IgG up to 100 nM)		1.31 nM	no binding (tested: IgG up to 100 nM)	no binding (tested: IgG up to 100 nM)	1.65 nM	0.43 nM	5.09 nM	5.42 nM	0.02 nM	4.78 nM	HLA-G02 (humanised VR12389gL2gH16 IgG1, conventional i.e. fucosylated) (antibody, also called conventional HLA-G02) heavy: not shown light: AIVLTQSPSSLSASVGDRVTITCQASQSIYSYLSWYQQKPGKAPKLLIYKASTLASGVPSRFSGSGSGTDFTLTISSLQPEDFATYYCQNHWNVGGNGWPFGGGTKVEIKRTVAAPSVFIFPPSDEQLKSGTASVVCLLNNFYPREAKVQWKVDNALQSGNSQESVTEQDSKDSTYSLSSTLTLSKADYEKHKVYACEVTHQGLSSPVTKSFNRGEC
